Assays:
murine α4β7 integrin [1] = target: T1, murine α4β7 integrin (mouse, UniProt Q00651 41-1039; P26011 20-806); test: cell adhesion, CHO/P transient transfectants
T1 construct: whole, on cells; Carried by the murine T cell lymphoma TK1; also called α4β7 on TK1 cells

human α4β7 integrin [2] = target: T2, human α4β7 integrin (human, UniProt P13612 34-1032; P26010 20-798); test: cell adhesion, FIG. 5 legend
T2 construct: whole, on cells; also called α4β7 on RPMI 8866 cells; α4β7 on HuT 78 cells
Experimental: Clone pcD3huMAd4 (insert from clone 4) or pcD3huMAd20 (insert from clone 20) was transiently transfected into CHO/P cells.
Adhesion of the CHO/P transfectants to RPMI 8866 cells was blocked by preincubation with anti-α4β7 MAb ACT-1, but not by control IgG. […] To further characterize these distinct cDNAs, both clones were completely sequenced.

murine α4β7 integrin [3] = target: T1, murine α4β7 integrin; test: cell adhesion, L1-2 stable transfectants
human α4β1 integrin [4] = target: T3, human α4β1 integrin (human, UniProt P13612 34-1032; P05556 21-798); test: functional adhesion assay, CHO/P transfectants, 4° C (FIG. 4B)
T3 construct: whole, on cells; Carried by Jurkat and Ramos cells (α4β1, not α4β7); also called α4β1 on Jurkat cells; α4β1 on Ramos cells
Experimental: (§1) Where DATK 32 was used in a preincubation with a cell line, prior to the start of the assay, the supernatant or buffer present in the wells (containing the transfectants) was aspirated in order to obtain volume of 0.5 ml total for the adhesion assay.
(§2) Assays were fixed as described above. Plates were washed by gentle inversion in a large beaker of phosphate buffered saline (PBS), followed by inversion in a beaker of PBS with 1.5% gluteraldehyde for fixation for a minimum of 1 hour. Adhesion was assessed by counting both lymphocytes and CHO cells in a field at 20× magnification. For each assay, the number of lymphocytes bound per CHO/P cell was averaged as a minimum of four fields with standard error. Results in each case are from one of three experiments performed with similar results.
(§3) Murine MAdCAM-1 specifically binds lymphocytes expressing α4β7 (and not α4β1). […] Binding of these cell lines was compared to that of transiently transfected CHO/P cells expressing murine MAdCAM-1 and human VCAM-1.

human α4β7 integrin [5] = target: T2, human α4β7 integrin; test: cell adhesion, FIG. 4A
Experimental: as §1, §2, §3

human α4β7 integrin [6] = target: T2, human α4β7 integrin; test: cell adhesion assay, CHO/P transfectants
human α4β1 integrin [7] = target: T3, human α4β1 integrin; test: cell adhesion, FIG. 4B legend
Experimental: as §1, §2, §3

human α4β1 integrin [8] = target: T3, human α4β1 integrin; test: cell adhesion assay, CHO/P transfectants

T3 sequence (P13612 34-1032, chain 1 of 2): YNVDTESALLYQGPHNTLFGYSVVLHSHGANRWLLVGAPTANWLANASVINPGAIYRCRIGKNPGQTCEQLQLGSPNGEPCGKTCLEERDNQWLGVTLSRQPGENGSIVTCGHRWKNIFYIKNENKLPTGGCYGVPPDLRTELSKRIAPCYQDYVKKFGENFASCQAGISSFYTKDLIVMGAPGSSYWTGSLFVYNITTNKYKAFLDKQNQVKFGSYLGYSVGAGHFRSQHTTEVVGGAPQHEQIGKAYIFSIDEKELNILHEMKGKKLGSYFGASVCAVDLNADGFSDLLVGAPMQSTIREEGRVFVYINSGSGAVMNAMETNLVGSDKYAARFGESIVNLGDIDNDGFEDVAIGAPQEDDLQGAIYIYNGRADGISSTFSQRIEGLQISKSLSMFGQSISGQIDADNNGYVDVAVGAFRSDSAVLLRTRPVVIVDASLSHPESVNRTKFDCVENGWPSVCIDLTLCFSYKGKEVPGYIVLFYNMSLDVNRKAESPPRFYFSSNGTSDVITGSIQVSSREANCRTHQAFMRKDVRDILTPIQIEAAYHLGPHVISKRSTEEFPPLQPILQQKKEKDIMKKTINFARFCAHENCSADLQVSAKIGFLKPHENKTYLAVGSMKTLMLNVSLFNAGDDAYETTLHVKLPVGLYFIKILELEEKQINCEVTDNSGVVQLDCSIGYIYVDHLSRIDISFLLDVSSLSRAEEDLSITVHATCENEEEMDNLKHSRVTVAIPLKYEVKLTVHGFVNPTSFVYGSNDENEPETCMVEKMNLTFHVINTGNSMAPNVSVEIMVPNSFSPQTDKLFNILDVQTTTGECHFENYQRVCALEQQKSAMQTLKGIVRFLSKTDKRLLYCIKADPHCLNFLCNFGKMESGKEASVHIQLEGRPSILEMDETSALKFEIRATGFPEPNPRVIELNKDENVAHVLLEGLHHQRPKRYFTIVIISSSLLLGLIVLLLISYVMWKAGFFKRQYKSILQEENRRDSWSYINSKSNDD
T3 sequence (P05556 21-798, chain 2 of 2): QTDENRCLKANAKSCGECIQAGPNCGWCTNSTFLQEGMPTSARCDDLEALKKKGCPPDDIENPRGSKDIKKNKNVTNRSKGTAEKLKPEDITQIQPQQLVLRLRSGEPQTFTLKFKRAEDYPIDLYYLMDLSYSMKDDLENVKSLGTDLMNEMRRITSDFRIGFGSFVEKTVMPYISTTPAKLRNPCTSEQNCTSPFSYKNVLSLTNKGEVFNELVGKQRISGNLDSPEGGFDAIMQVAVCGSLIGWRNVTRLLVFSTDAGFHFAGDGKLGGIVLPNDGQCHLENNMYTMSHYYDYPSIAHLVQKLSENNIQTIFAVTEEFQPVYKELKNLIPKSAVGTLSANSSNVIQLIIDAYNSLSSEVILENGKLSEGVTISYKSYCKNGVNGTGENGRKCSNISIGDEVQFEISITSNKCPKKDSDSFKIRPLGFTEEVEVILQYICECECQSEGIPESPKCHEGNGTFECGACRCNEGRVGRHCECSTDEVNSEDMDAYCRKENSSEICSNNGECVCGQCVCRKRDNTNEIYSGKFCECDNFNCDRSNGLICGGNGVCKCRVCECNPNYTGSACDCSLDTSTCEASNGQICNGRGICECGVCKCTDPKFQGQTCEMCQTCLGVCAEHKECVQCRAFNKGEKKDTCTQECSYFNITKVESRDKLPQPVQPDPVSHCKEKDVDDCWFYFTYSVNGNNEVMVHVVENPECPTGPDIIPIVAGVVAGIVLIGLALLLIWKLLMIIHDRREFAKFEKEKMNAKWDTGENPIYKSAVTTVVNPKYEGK
T2 sequence (P13612 34-1032, chain 1 of 2): as the sequence (P13612 34-1032, chain 1 of 2) above
T2 sequence (P26010 20-798, chain 2 of 2): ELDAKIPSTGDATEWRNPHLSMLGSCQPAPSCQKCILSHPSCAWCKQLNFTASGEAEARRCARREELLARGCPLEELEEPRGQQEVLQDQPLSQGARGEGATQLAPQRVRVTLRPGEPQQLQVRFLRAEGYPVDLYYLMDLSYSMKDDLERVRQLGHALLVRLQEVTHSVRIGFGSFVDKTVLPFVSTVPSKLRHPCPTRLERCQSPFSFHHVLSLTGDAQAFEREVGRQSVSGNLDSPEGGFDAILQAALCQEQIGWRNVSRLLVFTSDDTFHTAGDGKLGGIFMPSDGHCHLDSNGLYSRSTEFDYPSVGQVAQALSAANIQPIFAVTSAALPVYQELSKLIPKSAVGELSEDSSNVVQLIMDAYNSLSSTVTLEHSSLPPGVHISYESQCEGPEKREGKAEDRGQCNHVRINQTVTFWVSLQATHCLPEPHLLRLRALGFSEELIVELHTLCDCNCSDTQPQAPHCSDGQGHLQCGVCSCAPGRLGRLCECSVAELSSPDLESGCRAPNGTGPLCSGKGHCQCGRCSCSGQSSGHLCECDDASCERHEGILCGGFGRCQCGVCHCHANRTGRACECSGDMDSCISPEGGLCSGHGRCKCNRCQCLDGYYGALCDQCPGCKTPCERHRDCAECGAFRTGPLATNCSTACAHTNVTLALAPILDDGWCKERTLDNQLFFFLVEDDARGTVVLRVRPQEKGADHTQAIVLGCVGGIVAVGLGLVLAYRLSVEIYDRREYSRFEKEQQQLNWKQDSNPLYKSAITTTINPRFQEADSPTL
T1 sequence (Q00651 41-1039, chain 1 of 2): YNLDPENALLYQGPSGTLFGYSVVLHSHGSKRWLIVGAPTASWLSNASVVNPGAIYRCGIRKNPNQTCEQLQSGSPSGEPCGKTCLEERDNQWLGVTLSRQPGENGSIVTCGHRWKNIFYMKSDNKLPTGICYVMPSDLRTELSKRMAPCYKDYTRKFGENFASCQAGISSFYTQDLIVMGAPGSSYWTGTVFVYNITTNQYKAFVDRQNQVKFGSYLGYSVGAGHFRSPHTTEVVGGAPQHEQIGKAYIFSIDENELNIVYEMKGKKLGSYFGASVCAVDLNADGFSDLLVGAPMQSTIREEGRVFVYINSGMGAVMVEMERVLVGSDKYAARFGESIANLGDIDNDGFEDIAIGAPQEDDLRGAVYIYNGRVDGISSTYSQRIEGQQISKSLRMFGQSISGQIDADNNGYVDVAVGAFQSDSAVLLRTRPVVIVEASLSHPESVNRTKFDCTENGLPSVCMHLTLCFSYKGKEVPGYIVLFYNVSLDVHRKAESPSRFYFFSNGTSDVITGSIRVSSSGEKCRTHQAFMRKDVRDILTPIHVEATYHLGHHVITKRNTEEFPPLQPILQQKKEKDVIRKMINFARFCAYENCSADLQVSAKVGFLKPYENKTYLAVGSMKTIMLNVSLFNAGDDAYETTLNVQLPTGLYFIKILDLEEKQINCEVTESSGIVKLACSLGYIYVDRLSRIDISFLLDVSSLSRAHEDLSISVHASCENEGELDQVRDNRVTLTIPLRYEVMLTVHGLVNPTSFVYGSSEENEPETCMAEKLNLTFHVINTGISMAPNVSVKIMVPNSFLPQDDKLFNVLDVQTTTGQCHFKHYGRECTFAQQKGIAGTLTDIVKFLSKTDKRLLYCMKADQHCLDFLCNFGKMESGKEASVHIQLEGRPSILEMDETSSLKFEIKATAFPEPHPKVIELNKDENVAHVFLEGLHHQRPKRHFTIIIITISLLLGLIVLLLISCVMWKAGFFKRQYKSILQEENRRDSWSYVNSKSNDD
T1 sequence (P26011 20-806, chain 2 of 2): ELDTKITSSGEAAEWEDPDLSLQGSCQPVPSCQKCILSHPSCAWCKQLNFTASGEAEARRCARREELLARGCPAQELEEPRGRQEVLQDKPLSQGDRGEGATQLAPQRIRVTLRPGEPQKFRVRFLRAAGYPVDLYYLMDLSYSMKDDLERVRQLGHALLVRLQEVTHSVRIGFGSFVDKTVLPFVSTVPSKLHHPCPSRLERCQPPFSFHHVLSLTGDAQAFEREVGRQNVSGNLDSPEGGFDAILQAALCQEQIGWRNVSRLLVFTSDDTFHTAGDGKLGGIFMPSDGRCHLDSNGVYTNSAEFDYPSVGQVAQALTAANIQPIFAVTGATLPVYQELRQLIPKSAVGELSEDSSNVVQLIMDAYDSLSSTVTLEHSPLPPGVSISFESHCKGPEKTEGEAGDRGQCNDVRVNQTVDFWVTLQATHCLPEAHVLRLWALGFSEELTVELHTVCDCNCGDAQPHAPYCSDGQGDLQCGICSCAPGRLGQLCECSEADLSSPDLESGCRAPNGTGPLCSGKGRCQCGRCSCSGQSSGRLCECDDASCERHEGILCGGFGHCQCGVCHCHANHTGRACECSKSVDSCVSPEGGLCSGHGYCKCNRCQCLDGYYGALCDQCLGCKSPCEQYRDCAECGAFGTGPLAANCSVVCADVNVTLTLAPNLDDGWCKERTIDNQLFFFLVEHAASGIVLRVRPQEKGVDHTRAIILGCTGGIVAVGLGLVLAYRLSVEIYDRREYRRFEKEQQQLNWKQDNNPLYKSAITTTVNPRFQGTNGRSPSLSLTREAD

B1: human MAdCAM-1 (cDNA clone 20) (receptor)
chain: QSLQVKPLQVEPPEPVVAVALGASRQLTCRLACADRGASVQWRGLDTSLGAVQSDTGRSVLTVRNASLSAAGTRVCVGSCGGRTFQHTVQLLVYAFPDQLTVSPAALVPGDPEVACTAHKVTPVDPNALSFSLLVGGQELEGAQALGPEVQEEEEEPQGDEDVLFRVTERWRLPPLGTPVPPALYCQATMRLPGLELSHRQAIPVLHSPTSPEPPDTTSPESPDTTSPESPDTTSQEPPDTTSPEPPDKTSPEPAPQQGSTHTPRSPGSTRTRRPEISQAGPTQGEVIPTGSSKPAGDQLPAALWTSSAVLGLLLLALPTYHLWKRCRHLAEDDTHPPASLRLLPQVSAWAGLRGTGQVGISPS
notes: Isoform with a shorter mucin domain, expressed on CHO/P cells; also called pcD3huMAd20
Which results are given for B1?
binding result (murine α4β7 integrin [1]): binds; binding result (human α4β7 integrin [2]): binds

B2: human MAdCAM-1 (cDNA clone 4) (receptor)
chain: QSLQVKPLQVEPPEPVVAVALGASRQLTCRLACADRGASVQWRGLDTSLGAVQSDTGRSVLTVRNASLSAAGTRVCVGSCGGRTFQHTVQLLVYAFPDQLTVSPAALVPGDPEVACTAHKVTPVDPNALSFSLLVGGQELEGAQALGPEVQEEEEEPQGDEDVLFRVTERWRLPPLGTPVPPALYCQATMRLPGLELSHRQAIPVLHSPTSPEPPDTTSPEPPNTTSPESPDTTSPESPDTTSQEPPDTTSQEPPDTTSQEPPDTTSPEPPDKTSPEPAPQQGSTHTPRSPGSTRTRRPEISQAGPTQGEVIPTGSSKPAGDQLPAALWTSSAVLGLLLLALPTYHLWKRCRHLAEDDTHPPASLRLLPQVSAWAGLRGTGQVGISPS
notes: also called pcD3huMAd4; pCDhuMAd4
Does B2 bind (human α4β7 integrin [2])?
Result: binds

Does B2 bind (murine α4β7 integrin [3])?
Result: binds

Does B2 bind (human α4β1 integrin [4])?
Result: no binding

B3: murine MAdCAM-1 (receptor, mouse, UniProt Q61826 22-405, looked up)
chain: QSFQVNPPESEVAVAMGTSLQITCSMSCDEGVARVHWRGLDTSLGSVQTLPGSSILSVRGMLSDTGTPVCVGSCGSRSFQHSVKILVYAFPDQLVVSPEFLVPGQDQVVSCTAHNIWPADPNSLSFALLLGEQRLEGAQALEPEQEEEIQEAEGTPLFRMTQRWRLPSLGTPAPPALHCQVTMQLPKLVLTHRKEIPVLQSQTSPKPPNTTSAEPYILTSSSTAEAVSTGLNITTLPSAPPYPKLSPRTLSSEGPCRPKIHQDLEAGWELLCEASCGPGVTVRWTLAPGDLATYHKREAGAQAWLSVLPPGPMVEGWFQCRQDPGGEVTNLYVPGQVTPNSSSTVVLWIGSLVLGLLALVFLAYRLWKCYRPGPRPDTSSCTHL
notes: whole, on cells; Transiently expressed on CHO/P cells; also called pCDMAD-7
Does B3 bind (human α4β1 integrin [4])?
Result: no binding

Does B3 bind (human α4β7 integrin [5])?
Result: binds

B4: seven domain human VCAM-1 (receptor, UniProt P19320 25-739, looked up)
chain: FKIETTPESRYLAQIGDSVSLTCSTTGCESPFFSWRTQIDSPLNGKVTNEGTTSTLTMNPVSFGNEHSYLCTATCESRKLEKGIQVEIYSFPKDPEIHLSGPLEAGKPITVKCSVADVYPFDRLEIDLLKGDHLMKSQEFLEDADRKSLETKSLEVTFTPVIEDIGKVLVCRAKLHIDEMDSVPTVRQAVKELQVYISPKNTVISVNPSTKLQEGGSVTMTCSSEGLPAPEIFWSKKLDNGNLQHLSGNATLTLIAMRMEDSGIYVCEGVNLIGKNRKEVELIVQEKPFTVEISPGPRIAAQIGDSVMLTCSVMGCESPSFSWRTQIDSPLSGKVRSEGTNSTLTLSPVSFENEHSYLCTVTCGHKKLEKGIQVELYSFPRDPEIEMSGGLVNGSSVTVSCKVPSVYPLDRLEIELLKGETILENIEFLEDTDMKSLENKSLEMTFIPTIEDTGKALVCQAKLHIDDMEFEPKQRQSTQTLYVNVAPRDTTVLVSPSSILEEGSSVNMTCLSQGFPAPKILWSRQLPNGELQPLSENATLTLISTKMEDSGVYLCEGINQAGRSRKEVELIIQVTPKDIKLTAFPSESVKEGDTVIISCTCGNVPETWIILKKKAETGDTVLKSIDGAYTIRKAQLKDAGVYECESKNKVGSQLRSLTLDVQGRENNKDYFSPELLVLYFASSLIIPAIGMIIYFARKANMKGSYSLVEAQKSKV
notes: whole, on cells; Transiently expressed on CHO/P cells; also called pCD3VCAM
Does B4 bind (human α4β7 integrin [6])?
Result: no binding

Does B4 bind (human α4β1 integrin [7])?
Result: binds

B5: macaque MAdCAM-1 (cDNA clone 31D) (receptor)
chain: QSLQVKPLQVEPPEPVVAVALGASRQLTCRLDCADRGATVQWRGLDTSLGAVQSDAGRSVLTVRNASLSAAGTRVCVGSCGGRTFQHTVRLLVYAFPDQLTISPAALVPGDPEVACTAHKVTPVDPNALSFSLLLGDQELEGAQALGPEVEEEEEEPQEEEDVLFRVTERWRLPTLATPVLPALYCQATMRLPGLELSHRQAIPVLHGPTSREPPDTTSPEPRAATSPETTPQQGSTHSPRSPGSTRTCRPEISQAGPTQGEVIPTGSSKPTGDQLPAALWTSSAVLGLLLLALPTYHLWKRCRHLAEDGAHPPASLSSQPFPL
notes: Expressed on CHO/P or L1-2 cells; also called pcD3pMAd; pCD3PMad
Does B5 bind (human α4β1 integrin [8])?
Result: no binding

— patent US7803904 (Takeda / Millennium, dated 2010)
